# Laboratory results as given in patent publication US20190352420A1 (Boehringer Ingelheim, published 2019).
# T1: cell-bound CD73 (human, UniProt P21589 27-549)
# T1 sequence (looked up): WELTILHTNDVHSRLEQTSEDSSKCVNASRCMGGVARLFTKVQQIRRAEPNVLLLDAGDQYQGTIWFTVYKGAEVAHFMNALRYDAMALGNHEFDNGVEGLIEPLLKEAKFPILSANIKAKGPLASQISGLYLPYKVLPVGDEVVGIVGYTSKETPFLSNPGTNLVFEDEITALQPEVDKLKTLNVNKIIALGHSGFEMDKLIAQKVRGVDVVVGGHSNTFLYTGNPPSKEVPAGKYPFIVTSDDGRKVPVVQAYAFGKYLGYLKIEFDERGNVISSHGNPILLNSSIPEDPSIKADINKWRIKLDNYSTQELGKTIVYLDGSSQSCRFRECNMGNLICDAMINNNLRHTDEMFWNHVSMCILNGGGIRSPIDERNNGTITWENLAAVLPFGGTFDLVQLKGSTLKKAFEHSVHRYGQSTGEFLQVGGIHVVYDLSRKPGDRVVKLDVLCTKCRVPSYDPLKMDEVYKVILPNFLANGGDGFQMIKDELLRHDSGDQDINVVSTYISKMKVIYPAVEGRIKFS
# T2: mouse CD73 (mouse, UniProt Q61503 29-551, limits assumed)
# T2 construct: also called murine CD73
# T2 sequence (looked up): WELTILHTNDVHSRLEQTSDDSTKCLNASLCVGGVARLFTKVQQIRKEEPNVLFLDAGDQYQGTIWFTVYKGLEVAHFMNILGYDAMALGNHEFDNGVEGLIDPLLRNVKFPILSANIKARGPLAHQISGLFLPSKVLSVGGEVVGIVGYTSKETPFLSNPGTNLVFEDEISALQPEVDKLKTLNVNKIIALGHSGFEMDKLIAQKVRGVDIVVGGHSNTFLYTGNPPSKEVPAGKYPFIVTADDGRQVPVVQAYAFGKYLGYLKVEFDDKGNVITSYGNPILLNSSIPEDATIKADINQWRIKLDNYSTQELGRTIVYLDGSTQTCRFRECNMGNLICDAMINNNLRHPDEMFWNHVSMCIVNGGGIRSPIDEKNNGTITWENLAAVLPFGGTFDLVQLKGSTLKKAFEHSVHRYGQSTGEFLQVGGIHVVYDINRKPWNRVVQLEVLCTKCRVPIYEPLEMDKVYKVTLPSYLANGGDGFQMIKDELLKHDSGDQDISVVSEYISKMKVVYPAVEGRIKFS
# T3: recombinant human CD73 protein (human, UniProt P21589 27-549, limits assumed)
# T3 sequence (looked up): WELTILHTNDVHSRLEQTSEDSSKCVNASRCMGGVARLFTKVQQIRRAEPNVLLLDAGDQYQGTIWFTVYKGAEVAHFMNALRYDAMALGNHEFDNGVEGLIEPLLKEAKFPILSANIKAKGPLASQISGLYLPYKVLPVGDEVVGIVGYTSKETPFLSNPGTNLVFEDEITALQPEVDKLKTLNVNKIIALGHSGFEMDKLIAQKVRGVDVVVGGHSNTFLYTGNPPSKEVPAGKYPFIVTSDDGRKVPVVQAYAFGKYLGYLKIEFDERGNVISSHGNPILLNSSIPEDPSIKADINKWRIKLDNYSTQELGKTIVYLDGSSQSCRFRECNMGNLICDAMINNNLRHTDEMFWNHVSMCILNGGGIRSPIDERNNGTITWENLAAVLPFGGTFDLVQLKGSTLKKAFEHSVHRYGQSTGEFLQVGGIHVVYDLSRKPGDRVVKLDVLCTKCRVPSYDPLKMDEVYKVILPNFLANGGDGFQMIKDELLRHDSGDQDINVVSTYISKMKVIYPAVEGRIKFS
# T4: non-cell-bound CD73 (human, UniProt P21589 27-549, limits assumed)
# T4 sequence (looked up): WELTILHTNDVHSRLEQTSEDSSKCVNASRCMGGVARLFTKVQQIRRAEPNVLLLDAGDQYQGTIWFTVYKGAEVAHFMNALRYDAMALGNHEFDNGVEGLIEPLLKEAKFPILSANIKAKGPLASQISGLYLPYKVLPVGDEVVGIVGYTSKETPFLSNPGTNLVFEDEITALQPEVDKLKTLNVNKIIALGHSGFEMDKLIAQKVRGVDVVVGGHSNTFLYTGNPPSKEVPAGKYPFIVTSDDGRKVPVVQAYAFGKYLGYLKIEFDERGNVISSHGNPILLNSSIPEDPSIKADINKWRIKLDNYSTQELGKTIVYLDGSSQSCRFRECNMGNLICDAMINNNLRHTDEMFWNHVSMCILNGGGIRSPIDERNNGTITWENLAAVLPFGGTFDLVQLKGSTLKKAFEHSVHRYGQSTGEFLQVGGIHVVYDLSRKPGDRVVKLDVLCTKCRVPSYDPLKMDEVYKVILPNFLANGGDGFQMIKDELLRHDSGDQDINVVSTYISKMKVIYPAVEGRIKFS
# T5: human CD73-His (human, UniProt P21589 27-549)
# T5 construct: extracellular domain; The SPR analyte is only called 'human CD73-His' (non-covalent dimeric antigen); also called HuCD73 His tagged; HuCD73his20170303
# T5 sequence: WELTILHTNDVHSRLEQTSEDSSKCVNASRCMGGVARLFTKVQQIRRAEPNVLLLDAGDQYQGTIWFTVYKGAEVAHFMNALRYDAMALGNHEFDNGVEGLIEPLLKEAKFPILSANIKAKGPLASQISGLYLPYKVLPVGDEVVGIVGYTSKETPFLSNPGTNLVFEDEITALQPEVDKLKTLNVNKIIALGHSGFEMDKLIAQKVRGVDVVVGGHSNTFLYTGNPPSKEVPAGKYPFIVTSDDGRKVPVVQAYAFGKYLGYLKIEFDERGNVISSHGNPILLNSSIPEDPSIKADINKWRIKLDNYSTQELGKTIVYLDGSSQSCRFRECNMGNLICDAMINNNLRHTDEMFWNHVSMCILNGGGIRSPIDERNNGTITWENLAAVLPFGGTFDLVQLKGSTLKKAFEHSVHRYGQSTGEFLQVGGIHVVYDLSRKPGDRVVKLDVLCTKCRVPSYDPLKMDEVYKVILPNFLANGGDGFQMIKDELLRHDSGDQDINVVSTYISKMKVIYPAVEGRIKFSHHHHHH
# How the values were obtained:
# cell-bound CD73 [1] = biological target: T1, cell-bound CD73; test: cell-based or functional assay
# mouse CD73 = biological target: T2, mouse CD73; test: SPR, mouse CD73 compared with human CD73 (reference)
# cell-bound CD73 [2] = biological target: T1, cell-bound CD73; test: cell-based or functional assay; remark: listed apart in the source
# [3] = biological target: T3, recombinant human CD73 protein; test: cell-based or functional assay
# cell-bound CD73 [4] = biological target: T1, cell-bound CD73; test: cell-based or functional assay; remark: listed apart in the source
# non-cell-bound CD73 = biological target: T4, non-cell-bound CD73; test: cell-based or functional assay
# cell-bound CD73 [5] = biological target: T1, cell-bound CD73; test: cell-based or functional assay; remark: listed apart in the source
# human CD73-His = biological target: T5, human CD73-His; test: SPR (ProteOn XPR36), antibody captured on Protein A/G, dimeric human CD73-His as analyte, avidity format, 1:1 Langmuir fit
# Procedure: For the avidity format, the experiment was performed on a Bio-Rad ProteOn XPR36 instrument. Antibodies were captured via Protein A/G and the non-covalent dimeric antigens were flowed over the captured surface. The running buffer for this experiment and all dilutions were prepared in PBS-T-EDTA. The GLM sensor chip was normalized and pre-conditioned as per the manufacturer's recommendations. The sensor chip was activated with an equal mixture of EDC/s-NHS in the horizontal direction for 300 s at a flow rate of 30 μL/min and immobilized with recombinant Protein A/G (50 μg/ml in 10 mM acetate pH 4.5) in the horizontal direction for 300 s at a flow rate of 30 μL/min resulting in about 5000 RU of Protein A/G on the surface. The sensor chip was deactivated with 1M ethanolamine-HCl in the horizontal direction for 300 s at a flow rate of 30 μL/min. The sensor chip was regenerated with 18 s of 0.85% phosphoric acid at a flow rate of 100 μL/min 2 times horizontally and 2 times vertically.
# About 300 RU of antibody was captured on the Protein A/G surface vertically for 60 s at a flow rate of 30 μL/min. The capture surface was stabilized by injecting PBS-T-EDTA for 60 s at a flowrate of 100 μL/min horizontally. The analyte (human CD73-His) was injected horizontally over the captured antibody for 600 s at a flow rate of 30 μL/min with a dissociation of 1200 s. The concentrations of human CD73-His were 0 nM, 3.125 nM, 6.25 nM, 12.5 nM, 25 nM and 50 nM. The surface was regenerated by injecting 0.85% phosphoric acid for 18 s at a flow rate of 100 μL/min one time horizontally and one time vertically.
# The interspot (interactions with sensor surface) and blank (PBS-T-EDTA or 0 nM analyte) were subtracted from the raw data.
# cell-bound CD73 [6] = biological target: T1, cell-bound CD73; test: cell-based or functional assay; remark: listed apart in the source
Binder,"CD8 T cell proliferation [% of control], Donor A, 1 nM antibody (cell-bound CD73 [1]) [%]","CD8 T cell proliferation [% of control], Donor B, 1 nM antibody (cell-bound CD73 [1]) [%]",fold higher binding to human CD73 than to mouse CD73 (mouse CD73) [fold],"% of max. adenosine inhibition, washed Colo-201 cells (cell-bound CD73 [2]) [%]",IC90 of inhibition of CD73 enzymatic function (luciferase-based assay) [3] [pM],Max. adenosine inhibition [%] in Colo201 cells (cell-bound CD73 [4]) [%],"% of max. adenosine inhibition, Colo-201 culture supernatant (non-cell-bound CD73) [%]","IFNγ release [fold change over control], Donor A, 1 nM antibody (cell-bound CD73 [5]) [fold]","IFNγ release [fold change over control], Donor B, 1 nM antibody (cell-bound CD73 [5]) [fold]",Kd (human CD73-His) [pM],"CD73 surface reduction [%] on Colo201 cells, 24 h, flow cytometry (cell-bound CD73 [6]) [%]","CD8 T cell proliferation [% of control], Donor C, 1 nM antibody (cell-bound CD73 [1]) [%]","CD8 T cell proliferation [% of control], Donor D, 1 nM antibody (cell-bound CD73 [1]) [%]","CD8 T cell proliferation [% of control], Donor E, 1 nM antibody (cell-bound CD73 [1]) [%]","CD8 T cell proliferation [% of control], Donor F, 1 nM antibody (cell-bound CD73 [1]) [%]","IFNγ release [fold change over control], Donor C, 1 nM antibody (cell-bound CD73 [5]) [fold]","IFNγ release [fold change over control], Donor D, 1 nM antibody (cell-bound CD73 [5]) [fold]","IFNγ release [fold change over control], Donor E, 1 nM antibody (cell-bound CD73 [5]) [fold]","IFNγ release [fold change over control], Donor F, 1 nM antibody (cell-bound CD73 [5]) [fold]"
"C2 (antibody, human IgG1, kappa, L234A L235A, V domains shown, Humanized monoclonal antibody; also called anti-CD73 antibody C2) VH: QVQLVQSGAEVKKPGDSVKVSCKASGYTFTTYWMHWVRQAPGQGLEWMGAIYPGLSDTTYSQKFKGKVTMTRDTSTSTVYMKLSSLRSEDTAVYYCARLLDYAMDYWGQGTLVTVSS VL: DIQMTQSPSSLSASVGDRVTITCRASQDIRSYLNWHQQKPGKAPKLLIWYTSRLHSGVPSRFSGSGSGTDYTLTISSLEPEDFATYFCQQGETLPWTFGQGTKLEIKR",103,68.5,138,78,490,88,77,20.3,7.8,63,15,,,,,,,,
"C1 (antibody, human IgG1, kappa, L234A L235A, V domains shown, Humanized monoclonal antibody; also called anti-CD73 antibody C1) VH: QVQLVQSGAEVKKPGDSVKVSCKASGYTFTTYWMHWVRQAPGQGLEWMGAIYPGFSDTTYSQKFKGKVTMTRDTSTSTVYMKLSSLRSEDTAVYYCARLLDYAMDYWGQGTLVTVSS VL: DIQMTQSPSSLSASVGDRVTITCRASQDIRSYLNWHQQKPGKAPKLLIWYTSRLHSGVPSRFSGSGSGTDYTLTISSLEPEDFATYFCQQGETLPWTFGQGTKLEIKR",104,86.7,96,79,490,86,76,20.9,12,72,20,107,99.5,101,84.2,51.3,20.9,12.8,6.7
"C3 (antibody, human IgG1, kappa, L234A L235A, V domains shown, Humanized monoclonal antibody; also called anti-CD73 antibody C3) VH: QVQLVQSGAEVKKPGDSVKVSCKASGYTFTTYWMHWVRQAPGQGLEWMGAIYPGLSDTTYSQKFKGKVTMTRDTSTSTVYMKLSSLRSEDTAVYYCARLLDYAMDYWGQGTLVTVSS VL: DIQMTQSPSSLSASVGDRVTITCRASQDIRSYLNWHQQKPGKAPKLLIWYTSRLHSGVPSRFSGSGSGTDYTLTISSLQPEDFATYFCQQGETLPWTFGQGTKLEIKR",103,80.2,117,81,320,88,82,19.9,7.7,72,16,116,99.3,101,91.3,31.9,19,14.2,6.7
"B2 (antibody, human IgG1, kappa, L234A L235A, V domains shown, Humanized monoclonal antibody; also called anti-CD73 antibody B2) VH: EVQLVESGGGLVQPGGSLRLSCAASGLTFSSYVMSWVRQAPGKGLEWVSTISSGGVSTYYPDTVKGRFTISRDNSKNTLYLQMNSLRAEDTAVYYCAKRETARATGFAYWGQGTLVTVSA VL: DIQMTQSPSSLSASVGDRVTITCKASQSVSDDVTWYQQKPGKAPKLLIYYASNRYTGVPSRFSGSGSGTDFTFTISSVQPEDIATYYCQQDYSSPWTFGGGTKLEIKR",55.6,62.2,,70,1040,77,62,12.6,8.1,420,31,95.8,98.5,99.1,-8.9,34.1,17.7,11.1,3.1
